The values below come from US20210046160A1 (Synthorx, Inc., priority 2019, published 2021).

Common to all, as to type: cell-based
The subject of series [1] is NK cells. The series is described as follows: pSTAT5 concentration-response in human LRS-derived PBMC samples (flow cytometry): NK cells. To be noted: Table 4, 45 min. Here is the method: (§1) These studies were performed at PrimityBio LLC (Fremont, Calif.). […] Staining panel for flow cytometry study of LRS-derived PBMC samples include markers for Effector T cells (Teff: CD3+, CD4+, CD8+, CD127+), NK cells (CD3-, CD16+), and Regulatory T cells (Treg: CD3+, CD4+, CD8-, IL-2Rα+, CD127-1).
(§2) The EC50 values (pg/mL) was calculated from dose response curves generated from MFI plots. […]

Series [2] relates to Treg cells. The series is described as follows: pSTAT5 concentration-response in human LRS-derived PBMC samples (flow cytometry): Treg cells. To be noted: Table 4; for EC50 for pSTAT5 signaling, Treg Cells: human LRS samples, 45 min; for CD8/Treg ratio: ratio of pSTAT5 EC50 values. Here is the method:
as §1
The EC50 values (pg/mL) was calculated from dose response curves generated from MFI plots.
These studies were performed at PrimityBio LLC (Fremont, Calif.). […] Staining panel for flow cytometry study of LRS-derived PBMC samples include markers CD4, CD4+ memory central, CD4+ memory effect, CD4+ memory T cells, CD4+ Naive T cells, CD4+ T cells, CD8, CD8+ memory central, CD8+ memory effect, CD8+ memory T cells, CD8+ Naive T cells, CD8+ T cells, NK cells, and T regulatory cells.
Conjugates of Table 12 were synthesized by modification of SEQ NO. 1. These studies were performed at PrimityBio LLC (Fremont, Calif.).
The EC50 values (pg/ml) were calculated from dose response curves generated from the MFI plots.
A general note: Flow cytometry measures light scatter and fluorescence of single cells or particles in a stream.

Series [3] has as its system CD8+ T cells. Kind of series: pSTAT5 concentration-response in human LRS-derived PBMC samples (flow cytometry): CD8+ T cells. Particulars: Table 4, 45 min. Here is the method: as §1, §2
For series [4], the system named is Human whole blood. Kind of series: Whole blood cytokine release assay (MSD U-plex: IFN-γ, IL-4, IL-5, IL-6, IL-8, TNF-α). Also on record: unit not given here. Particulars: for IL-4 level / IL-5 level: 90 ug/ml; for IFN-γ level, D1 / IL-6 level, D1 / IL-8 level, D1 / TNF-α level, D1 / IFN-γ level, D2 / IL-6 level, D2 / IL-8 level, D2 / TNF-α level, D2 / IFN-γ level, D3 / IL-6 level, D3 / IL-8 level, D3 / TNF-α level, D3 / IFN-γ level, D4 / IL-6 level, D4 / IL-8 level, D4 / TNF-α level, D4 / IFN-γ level, D5 / IL-6 level, D5 / IL-8 level, D5 / TNF-α level, D5 / IFN-γ level, D6 / IL-6 level, D6 / IL-8 level, D6 / TNF-α level, D6: 24 h, control conditions, conc. ug/ml: IgG4 iso 50, mouse IgG1,κ 100, PEM 90, NIVO 127, coated anti-CD3 100. Here is the method:
Cytokines released from the whole blood after treatment into the supernatant were measured using the Meso Scale Discovery (MSD) U-plex kit for six analytes (IFN-γ, IL-4, IL-5, IL-6, IL-8, TNF-α).
Blood in heparin tubes from 6 healthy donors were obtained from The Scripps Research Institute (TSRI; San Diego, Calif.) blood donor service. Samples were tested on the day of the collection; donors 1-3 on one day and donors 4-6 on another day.
A volume of 180 μL of prediluted whole blood was seeded onto a 96-well tissue culture plate. Then, 20 μL of 10× final test concentration of compounds was added to the assay plate. […] In addition, positive and negative controls were included to show the detection and specification of the assay: 100 μg/mL pre-coated Ultra LEAF mouse anti-human CD3 were used as the positive controls for the assay. […] […] No treatment also served as a negative control for the assay.
After adding the compound(s) to the well, the blood was incubated at 37° C. After centrifugation of the samples, supernatant was collected 24 h post treatment and stored at −80° C. before analysis. The human cytokines ([…], TNF-α, IL-8, IL-6, IL-5, IL-4) released from the assay were quantified with the MSD U-plex kit. The detection limit of each plate is reported from the MSD software, Discovery workbench. Each plate has a slightly different detection limit.

Series [5] relates to CD4+ T cells co-cultured with allogeneic monoDC. Kind of series: Allogeneic human mixed lymphocyte reaction (MLR) assay, IFN-γ secretion. Particulars: single agents, 5 days of co-culture. The text has this: The allogeneic human mixed lymphocyte reaction (MLR) assay was used to evaluate the ability of Compound B (IL-2_P65[AzK_L1_PEG30kD]-1) to enhance TCR activation as a single agent and in combination with a checkpoint inhibitor (nivolumab or pembrolizumab), as a model for cytolytic response to tumor cells presenting specific antigens or neoantigens.
Peripheral blood mononuclear cells (PBMCs) from two normal, healthy donors were used for each assay run. MonoDCs were generated by culturing monocytes isolated from PBMCs using a negative monocyte selection kit (Stemcell) in vitro for 7 days, involving addition of 1,500 IU/mL of IL-4 and 1,500 IU/mL of GM-CSF. The culture medium was replaced on Days 3 and 5. MonoDCs were collected on Day 7. On that day, CD4+ T cells were isolated from a different donor with a negative selection kit (Stemcell). […] Each run was set up in 3 replicates for each treatment condition. After 5 days of co-culture, IFN-γ secretion in culture supernatants was analyzed employing an enzyme-linked immunosorbent assay (ELISA) kit (Abcam; catalog #Ab46025). Clinical grade nivolumab was used to generate the data shown in FIG. 13, and research grade nivolumab (Selleckchem) was used to generate the data shown in FIG. 14. […] Data shown in FIGS. 12, 13, and 14 represent the mean of 3 replicates standard error of the mean from one donor pair.

For series [6], the system named is CTLL-2. The series is described as follows: CTLL-2 proliferation. Particulars: Table 4.

Regarding “K43_30 kD: IL-2 (SEQ ID NO: 4) PEGylated with 30 kD PEG via AzK at K43; presumably SEQ ID NO: 28”, in series [1], the “EC50 for pSTAT5 signaling, NK Cells” value is listed as 9004 pg/mL. In series [2], the “EC50 for pSTAT5 signaling, Treg Cells” value worked out at 4797 pg/mL and the CD8/Treg ratio is listed as 10.5. In addition, the “EC50 for pSTAT5 signaling, CD8+ T Cells” value in series [3] amounted to 50504 pg/mL.

As to pembrolizumab [reference compound], in series [4] (donor D1), the IL-4 level worked out at 0.10; the IL-5 level amounted to 1.03; the “IFN-γ level, D1” value was 52.78; the “IL-6 level, D1” value is on record as 1.09. Also, in series [4] (donor D1), the “IL-8 level, D1” value is given as 22.01 and the “TNF-α level, D1” value was 2.33. Further, in series [4] (donor D2), the IL-4 level is given as 0.03; the IL-5 level was 0.72; the “IFN-γ level, D2” value worked out at 9.62; the “IL-6 level, D2” value turned out to be 0.39. Further, in series [4] (donor D2), the “IL-8 level, D2” value worked out at 8.48 and the “TNF-α level, D2” value is reported as 0.68. Besides, in series [4] (donor D3), the IL-4 level came out at 0.03; the IL-5 level was determined as 0.79; the “IFN-γ level, D3” value is 8.80; the “IL-6 level, D3” value is on record as 0.92. In series [4] (donor D3), the “IL-8 level, D3” value is reported as 11.36 and the “TNF-α level, D3” value was found to be 1.67. For the same substance, in series [4] (donor D4), the IL-4 level amounted to 0.09; the IL-5 level entry is reported as “BDL”; the “IFN-γ level, D4” value is given as 11.71; the “IL-6 level, D4” value is on record as 0.65. Further, in series [4] (donor D4), the “IL-8 level, D4” value worked out at 23.29 and the “TNF-α level, D4” value was found to be 0.97. Moreover, in series [4] (donor D5), the IL-4 level entry was “BDL”; the IL-5 level entry is listed as “BDL”; the “IFN-γ level, D5” value was determined as 301.71; the “IL-6 level, D5” value is 8.95. Besides, in series [4] (donor D5), the “IL-8 level, D5” value is 95.5 and the “TNF-α level, D5” value was 5.88. In addition, in series [4] (donor D6), the IL-4 level entry is “BDL”; the IL-5 level entry is “BDL”; the “IFN-γ level, D6” value came to 10.08; the “IL-6 level, D6” value came out at 1.06. In addition, in series [4] (donor D6), the “IL-8 level, D6” value is 28.32 and the “TNF-α level, D6” value turned out to be 1.43. Further, in series [5], the “release of IFN-γ” value is on record as “induced the release of IFN-γ in a concentration-dependent manner”.

Consider nivolumab [reference compound], for which, in series [4] (donor D1), the “IFN-γ level, D1” value is given as 29.77; the “IL-6 level, D1” value was 1.28; the “IL-8 level, D1” value came out at 20.59; the “TNF-α level, D1” value was found to be 2.35. Besides, in series [4] (donor D2), the “IFN-γ level, D2” value amounted to 9.34; the “IL-6 level, D2” value stood at 0.48; the “IL-8 level, D2” value is 7.68; the “TNF-α level, D2” value was 0.44. In series [4] (donor D3), the “IFN-γ level, D3” value was 6.61; the “IL-6 level, D3” value came to 1.09; the “IL-8 level, D3” value was 7.95; the “TNF-α level, D3” value was 1.33. Moreover, in series [4] (donor D4), the “IFN-γ level, D4” value stood at 7.56; the “IL-6 level, D4” value is given as 0.59; the “IL-8 level, D4” value is 22.61; the “TNF-α level, D4” value was determined as 1.21. Moreover, in series [4] (donor D5), the “IFN-γ level, D5” value turned out to be 256.75; the “IL-6 level, D5” value is 3.29; the “IL-8 level, D5” value amounted to 67.38; the “TNF-α level, D5” value was 4.89. Besides, in series [4] (donor D6), the “IFN-γ level, D6” value was 9.51; the “IL-6 level, D6” value is listed as 0.62; the “IL-8 level, D6” value was found to be 19.68; the “TNF-α level, D6” value is recorded as “BDL”. In addition, the “release of IFN-γ” value in series [5] is given as “induced the release of IFN-γ in a concentration-dependent manner”.

On to “F42_30 kD: IL-2 (SEQ ID NO: 4) PEGylated with 30 kD PEG via AzK at F42; presumably SEQ ID NO: 27”, for which, in series [1], the “EC50 for pSTAT5 signaling, NK Cells” value was 16397 pg/mL. Also, in series [2], the “EC50 for pSTAT5 signaling, Treg Cells” value amounted to 36856 pg/mL and the CD8/Treg ratio is 2.9. In addition, the “EC50 for pSTAT5 signaling, CD8+ T Cells” value in series [3] is given as 107944 pg/mL. Further, the “EC50, CTLL-2 proliferation” value in series [6] is given as 123,936 pg/mL.
